Test results taken from patent US20150056301A1 (CANBAS, published 2015).
Where no end group is shown, it is not given here. [ ]: non-standard residue; d: D form. dPhe(4-NO2) = N[C@H](Cc1ccc([N+](=O)[O-])cc1)C(=O)O; dPhe(F5) = N[C@H](Cc1c(F)c(F)c(F)c(F)c1F)C(=O)O; dBpa = N[C@H](Cc1ccc(C(=O)c2ccccc2)cc1)C(=O)O; dCha = N[C@H](CC1CCCCC1)C(=O)O

T1: baculovirus derived recombinant human full length Chk1 with histidine tag (human, UniProt O14757 1-476)
T1 sequence: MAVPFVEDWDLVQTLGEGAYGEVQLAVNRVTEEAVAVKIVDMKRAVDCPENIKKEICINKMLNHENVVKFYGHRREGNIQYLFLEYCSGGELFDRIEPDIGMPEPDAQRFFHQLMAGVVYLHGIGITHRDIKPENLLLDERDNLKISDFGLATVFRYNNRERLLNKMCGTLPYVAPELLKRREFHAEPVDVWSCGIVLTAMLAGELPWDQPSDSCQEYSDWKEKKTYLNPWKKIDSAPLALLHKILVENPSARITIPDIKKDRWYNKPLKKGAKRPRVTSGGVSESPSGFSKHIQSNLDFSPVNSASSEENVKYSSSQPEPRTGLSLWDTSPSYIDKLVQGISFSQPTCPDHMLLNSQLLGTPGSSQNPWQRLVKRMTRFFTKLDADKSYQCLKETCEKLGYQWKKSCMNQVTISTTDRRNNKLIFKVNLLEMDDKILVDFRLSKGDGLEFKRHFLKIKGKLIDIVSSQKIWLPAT

B1: CBP440 (peptide)
peptide: YGRKKRRQRRRXFXYY
modifications: (l-Tyr)(l-Gly)(l-Arg)(l-Lys)(l-Lys)(l-Arg)(l-Arg)(l-Gln)(l-Arg)(l-Arg)(l-Arg)(l-Cha)(l-Phe-2,3,4,5,6-F)(l-aminoundecanoic acid)(l-Tyr)(l-Tyr): position 12 cyclohexyl-alanine; position 13 pentafluoro-phenylalanine; position 14 aminoundecanoic acid
B2: CBP450 (peptide)
peptide: [dY][dY][dS]G[dS][dR][dPhe(F5)][dCha][dR][dR][dR][dQ][dR][dR][dK][dK][dR]G[dY]
B3: CBP500 (peptide)
peptide: [dY][dBpa][dS][dW][dS][dPhe(F5)][dCha][dR][dR][dR][dQ][dR][dR]
B4: CBP505 (peptide)
peptide: [dBpa][dD][dS][dW][dS][dPhe(F5)][dCha][dR][dR][dR][dQ][dR][dR]
modifications: also: cyclised or stapled (no detail)
B5: CBP501 (peptide)
peptide: [dBpa][dS][dW][dS][dPhe(F5)][dCha][dR][dR][dR][dQ][dR][dR]
B6: CBP603 (peptide)
peptide: [dBpa][dS][dW][dS][dPhe(4-NO2)][dCha][dR][dR][dR][dQ][dR][dR]
modifications: also: cyclised or stapled (no detail)

Target: PKA
Assay: cell-based or functional assay

Binder	IC50 in µM, kinase inhibition analysis (PepTag Non-Radioactive Protein Kinase Assay)
B1	180 µM
B2	> 400 µM

Target: purified CHK2 kinase (UniProt O96017 1-543)
Sequence (O96017 whole entry): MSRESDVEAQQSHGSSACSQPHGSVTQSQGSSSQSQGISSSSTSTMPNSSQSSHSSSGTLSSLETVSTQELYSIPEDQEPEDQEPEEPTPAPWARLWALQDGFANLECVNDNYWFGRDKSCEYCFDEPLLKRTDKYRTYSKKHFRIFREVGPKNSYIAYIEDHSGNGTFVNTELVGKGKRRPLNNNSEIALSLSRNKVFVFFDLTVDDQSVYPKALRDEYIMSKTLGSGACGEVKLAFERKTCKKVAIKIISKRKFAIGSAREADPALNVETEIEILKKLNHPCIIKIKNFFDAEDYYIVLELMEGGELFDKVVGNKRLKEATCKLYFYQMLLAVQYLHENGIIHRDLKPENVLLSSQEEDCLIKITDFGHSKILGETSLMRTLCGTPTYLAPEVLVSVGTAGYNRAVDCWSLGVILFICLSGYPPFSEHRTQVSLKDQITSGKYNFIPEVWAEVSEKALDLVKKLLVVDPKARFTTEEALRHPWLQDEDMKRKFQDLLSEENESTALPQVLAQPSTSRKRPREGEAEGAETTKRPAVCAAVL
Assay: cell-based or functional assay

Binder	IC50 in µM, kinase inhibition analysis (PepTag Non-Radioactive Protein Kinase Assay)
B1	8 µM
B2	10 µM

Target: E. Coli derived recombinant human full length Chk2 fused with GST (human, UniProt O96017 1-543)
Sequence (O96017 whole entry, the tested form may be a part): as the sequence (O96017 whole entry) above
Assay: cell-based or functional assay

Binder	Kinase inhibition analysis of peptides (phosphorylation of serine 216 on GST-Cdc25C 167-267, enzyme linked immune assay)
B3	8
B4	> 100
B5	18.6
B6	18.1

Target: T1, baculovirus derived recombinant human …
Assay: cell-based or functional assay

Binder	Kinase inhibition analysis of peptides (phosphorylation of serine 216 on GST-Cdc25C 167-267, enzyme linked immune assay)
B3	5.6
B4	63.4
B5	7.9
B6	15.5
